We go through 16 molecules from PMC6030046, “Trapping of the transport-segment DNA by the ATPase domains of a type II topoisomerase” (Nature Communications, 2018).

Series [1] concerns the target Streptococcus pneumoniae topoisomerase IV ParC subunit, full length (Streptococcus pneumoniae) (UniProt P72525).
In series [2] the target is T1, ParE44 (topoisomerase IV ParE ATPase domain) (Streptococcus pneumoniae, UniProt Q59961 1-402). The series is described as follows: X-ray crystallography (2.83 A); AMP-PNP, Mg2+; DNA kinked in the dimer hole, one duplex per dimer; putative intercalated AMP-PNP; Co-crystallization: protein:DNA 1:2.2, 10 mM MgCl2, 2 mM AMP-PNP, protein in 20 mM Tris-HCl pH 7.5, 100 mM NaCl, 1 mM 2-mercaptoethanol; 14-mer: 50 mM HEPES pH. Particulars: protein: recombinant; tags: C-terminal 6xHis; chain copies: 2; blunt; self-complementary.

For series [3], the target named is T1, ParE44 (topoisomerase IV ParE ATPase …). The series can be described thus: X-ray crystallography (1.97 A); AMP-PNP, Mg2+; side-bound outside the hole, two duplexes per dimer; Co-crystallization: protein:DNA 1:2.2, 10 mM MgCl2, 2 mM AMP-PNP, protein in 20 mM Tris-HCl pH 7.5, 100 mM NaCl, 1 mM 2-mercaptoethanol; 14-mer: 50 mM HEPES pH. Particulars: protein: recombinant; tags: C-terminal 6xHis; chain copies: 2; blunt; self-complementary.

Series [4] deals with the molecule itself. The series is described as follows: crystal structure; ParE44 co-crystallised with 14-mer duplex DNA 5'-…-3', 2 mM AMP-PNP, 10 mM MgCl2; sitting drop, 50 mM HEPES pH 7.0, 5 mM MgCl2, 25% PEG MME 550; through-hole DNA bound complex, space group C2, 2.83 Å.

Turning to “ParE D269V, full length (from UniProt Q59961 1-647) (enzyme)”, in series [1], the Cleavage: ATP-independent quinolone-promoted DNA cleavage activity of topo IV reconstituted from ParC and ParE, relative to wild type worked out at 100%.

Take “ParE K281Q/D282A, full length (from UniProt Q59961 1-647) (enzyme)”: the Cleavage: ATP-independent quinolone-promoted DNA cleavage activity of topo IV reconstituted from ParC and ParE, relative to wild type in series [1] was determined as 100%.

For the molecule “ParE K291Q, full length (from UniProt Q59961 1-647) (enzyme)”, the Cleavage: ATP-independent quinolone-promoted DNA cleavage activity of topo IV reconstituted from ParC and ParE, relative to wild type in series [1] is 100%.

Turning to “ParE K313Q/E316Q, full length (from UniProt Q59961 1-647) (enzyme)”, the Cleavage: ATP-independent quinolone-promoted DNA cleavage activity of topo IV reconstituted from ParC and ParE, relative to wild type in series [1] came out at 100%.

For the molecule “ParE K346Q, full length (from UniProt Q59961 1-647) (enzyme)”, the Cleavage: ATP-independent quinolone-promoted DNA cleavage activity of topo IV reconstituted from ParC and ParE, relative to wild type in series [1] amounted to 100%.

Turning to “ParE K346Q/R353A, full length (from UniProt Q59961 1-647) (enzyme)”, the Cleavage: ATP-independent quinolone-promoted DNA cleavage activity of topo IV reconstituted from ParC and ParE, relative to wild type in series [1] is 100%.

In the case of “ParE R321Q, full length (from UniProt Q59961 1-647) (enzyme)”, the Cleavage: ATP-independent quinolone-promoted DNA cleavage activity of topo IV reconstituted from ParC and ParE, relative to wild type in series [1] amounted to 100%.

In series [1], “ParE R353A, full length (from UniProt Q59961 1-647) (enzyme)” showed a Cleavage: ATP-independent quinolone-promoted DNA cleavage activity of topo IV reconstituted from ParC and ParE, relative to wild type of 100%.

Consider “ParE R353Q, full length (from UniProt Q59961 1-647) (enzyme)”, for which the Cleavage: ATP-independent quinolone-promoted DNA cleavage activity of topo IV reconstituted from ParC and ParE, relative to wild type in series [1] was 100%.

Turning to “ParE R396Q, full length (from UniProt Q59961 1-647) (enzyme)”, the Cleavage: ATP-independent quinolone-promoted DNA cleavage activity of topo IV reconstituted from ParC and ParE, relative to wild type in series [1] came to 100%.

For the molecule “ParE R400Q, full length (from UniProt Q59961 1-647) (enzyme)”, the Cleavage: ATP-independent quinolone-promoted DNA cleavage activity of topo IV reconstituted from ParC and ParE, relative to wild type in series [1] was 100%.

In series [1], “ParE S268A, full length (from UniProt Q59961 1-647) (enzyme)” yielded a Cleavage: ATP-independent quinolone-promoted DNA cleavage activity of topo IV reconstituted from ParC and ParE, relative to wild type of 100%.

Take “Streptococcus pneumoniae topoisomerase IV ParE subunit, wild type, full length (from UniProt Q59961 1-647) (enzyme)”: the Cleavage: ATP-independent quinolone-promoted DNA cleavage activity of topo IV reconstituted from ParC and ParE, relative to wild type in series [1] came out at 100%.

B1: 14-mer T-segment duplex (dsDNA)
DNA 1: GCATATATATATGC
DNA 2: GCATATATATATGC
Take B1: in series [2], the binding result is on record as “binds”.

B2: 6-mer GCGCGC duplex (dsDNA)
DNA 1: GCGCGC
DNA 2: GCGCGC
With B2, the binding result in series [3] is on record as “binds”.

B3: Streptococcus pneumoniae ParE44 ATPase domain (residues 1-402) (domain or fragment, UniProt Q59961 1-402, looked up)
chain: MSKKEININNYNDDAIQVLEGLDAVRKRPGMYIGSTDGAGLHHLVWEIVDNAVDEALSGFGDRIDVTINKDGSLTVQDHGRGMPTGMHAMGIPTVEVIFTILHAGGKFGQGGYKTSGGLHGVGSSVVNALSSWLEVEITRDGAVYKQRFENGGKPVTTLKKIGTAPKSKTGTKVTFMPDATIFSTTDFKYNTISERLNESAFLLKNVTLSLTDKRTNEAIEFHYENGVQDFVSYLNEDKEILTPVLYFEGEDNGFQVEVALQYNDGFSDNILSFVNNVRTKDGGTHETGLKSAITKVMNDYARKTGLLKEKDKNLEGSDYREGLAAVLSILVPEEHLQFEGQTKDKLGSPLARPVVDGIVADKLTFFLMENGELASNLIRKAIKARDAREAARKARDESRNG
notes: ParE subunit of topoisomerase IV, Streptococcus pneumoniae, UniProt Q59961, residues 1-402 (ATPase domain); Crystallised as a closed dimer with AMP-PNP, Mg2+ and duplex DNA; also called ParE ATPase domain; N-terminal ParE44; source: E. coli BL21 λDE3, purified (Ni-NTA)
Turning to B3, in series [4], the binding result was “binds”.
